# Measurements: publication PMC7580981
# Target: IBV polymerase trimeric complex (Pol3): PA-His, PB1, PB2 (influenza B virus)
# Experiment: SPR; Biacore T200; […]; running buffer HBS-EP+; 1:1 fit model
# human ANP32A, purified (GST cleaved), sequence (P39687 whole entry): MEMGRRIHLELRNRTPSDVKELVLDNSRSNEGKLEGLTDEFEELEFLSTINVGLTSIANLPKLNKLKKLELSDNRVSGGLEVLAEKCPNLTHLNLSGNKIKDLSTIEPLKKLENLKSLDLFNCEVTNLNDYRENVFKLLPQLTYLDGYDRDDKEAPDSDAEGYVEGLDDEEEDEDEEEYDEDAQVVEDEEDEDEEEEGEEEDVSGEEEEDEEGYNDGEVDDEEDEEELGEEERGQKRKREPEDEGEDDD
Substance,KD of chANP32A relative to that of huANP32A (fold),Kd [µM],ka relative to chANP32A and huANP32A+33 (fold)
"chicken ANP32A, purified (GST cleaved) (natural protein)",3,–,–
"human ANP32A with the 33-amino-acid insert, purified (GST cleaved)",–,0.101,–
"human ANP32A, purified (GST cleaved) (from UniProt P39687 1-249) (natural protein)",–,0.0542,2
